Earlier results in paper PMC5371862.

Key:
[1] = molecular target: muscarinic acetylcholine receptor M4 (Homo sapiens) (UniProt P08173)
[2] = molecular target: muscarinic acetylcholine receptor M1 (Homo sapiens) (UniProt P11229)
P-type calcium channel = P-type calcium channel (UniProt O00555)
[3] = molecular target: edema factor (Bacillus anthracis) (UniProt P40136)
[4] = molecular target: lethal factor (Bacillus anthracis) (UniProt P15917)
lethal factor (Bacillus anthracis), sequence (P15917 34-809): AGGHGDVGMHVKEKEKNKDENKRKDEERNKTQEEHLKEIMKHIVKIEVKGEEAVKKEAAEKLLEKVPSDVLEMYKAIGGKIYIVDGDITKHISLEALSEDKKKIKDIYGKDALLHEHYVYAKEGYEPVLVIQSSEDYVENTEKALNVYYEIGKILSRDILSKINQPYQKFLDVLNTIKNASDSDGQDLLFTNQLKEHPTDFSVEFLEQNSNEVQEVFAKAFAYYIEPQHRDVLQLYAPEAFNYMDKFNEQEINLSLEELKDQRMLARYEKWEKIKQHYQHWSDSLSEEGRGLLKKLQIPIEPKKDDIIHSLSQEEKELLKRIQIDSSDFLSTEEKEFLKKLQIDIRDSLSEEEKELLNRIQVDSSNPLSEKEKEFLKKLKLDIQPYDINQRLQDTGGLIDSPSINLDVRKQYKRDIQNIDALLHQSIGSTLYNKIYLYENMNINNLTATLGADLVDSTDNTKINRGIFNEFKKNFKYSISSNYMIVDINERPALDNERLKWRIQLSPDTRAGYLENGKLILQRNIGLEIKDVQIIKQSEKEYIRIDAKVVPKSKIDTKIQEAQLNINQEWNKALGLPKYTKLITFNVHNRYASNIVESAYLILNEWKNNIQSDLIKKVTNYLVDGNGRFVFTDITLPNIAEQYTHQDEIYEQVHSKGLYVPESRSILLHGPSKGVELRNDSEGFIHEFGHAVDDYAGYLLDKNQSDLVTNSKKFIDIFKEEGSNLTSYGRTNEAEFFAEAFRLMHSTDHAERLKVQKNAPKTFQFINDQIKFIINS

protective antigen PA63 oligomer PA63, sequence (P13423 197-764): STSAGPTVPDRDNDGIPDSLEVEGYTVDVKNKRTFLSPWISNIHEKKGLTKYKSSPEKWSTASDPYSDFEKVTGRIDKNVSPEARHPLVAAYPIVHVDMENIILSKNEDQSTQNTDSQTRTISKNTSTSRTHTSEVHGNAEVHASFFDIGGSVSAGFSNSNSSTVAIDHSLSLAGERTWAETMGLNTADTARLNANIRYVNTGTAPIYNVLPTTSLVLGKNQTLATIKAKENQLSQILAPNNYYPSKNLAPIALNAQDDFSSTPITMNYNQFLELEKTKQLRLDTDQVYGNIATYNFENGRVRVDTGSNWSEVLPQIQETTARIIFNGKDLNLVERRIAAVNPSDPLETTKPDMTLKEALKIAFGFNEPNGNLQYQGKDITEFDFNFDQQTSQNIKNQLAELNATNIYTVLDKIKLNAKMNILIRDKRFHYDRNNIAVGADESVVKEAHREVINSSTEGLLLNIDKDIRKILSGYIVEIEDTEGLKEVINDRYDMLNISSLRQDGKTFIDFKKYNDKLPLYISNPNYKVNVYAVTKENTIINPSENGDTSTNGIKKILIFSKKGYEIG
omega-agatoxin Aga-IVA, sequence (P30288 whole entry): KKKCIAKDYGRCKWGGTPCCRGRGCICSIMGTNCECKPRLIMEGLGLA
muscarinic toxin MT3, sequence (P81031 whole entry): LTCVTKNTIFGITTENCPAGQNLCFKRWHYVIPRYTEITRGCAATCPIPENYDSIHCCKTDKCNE
P-type calcium channel, sequence (O00555 whole entry): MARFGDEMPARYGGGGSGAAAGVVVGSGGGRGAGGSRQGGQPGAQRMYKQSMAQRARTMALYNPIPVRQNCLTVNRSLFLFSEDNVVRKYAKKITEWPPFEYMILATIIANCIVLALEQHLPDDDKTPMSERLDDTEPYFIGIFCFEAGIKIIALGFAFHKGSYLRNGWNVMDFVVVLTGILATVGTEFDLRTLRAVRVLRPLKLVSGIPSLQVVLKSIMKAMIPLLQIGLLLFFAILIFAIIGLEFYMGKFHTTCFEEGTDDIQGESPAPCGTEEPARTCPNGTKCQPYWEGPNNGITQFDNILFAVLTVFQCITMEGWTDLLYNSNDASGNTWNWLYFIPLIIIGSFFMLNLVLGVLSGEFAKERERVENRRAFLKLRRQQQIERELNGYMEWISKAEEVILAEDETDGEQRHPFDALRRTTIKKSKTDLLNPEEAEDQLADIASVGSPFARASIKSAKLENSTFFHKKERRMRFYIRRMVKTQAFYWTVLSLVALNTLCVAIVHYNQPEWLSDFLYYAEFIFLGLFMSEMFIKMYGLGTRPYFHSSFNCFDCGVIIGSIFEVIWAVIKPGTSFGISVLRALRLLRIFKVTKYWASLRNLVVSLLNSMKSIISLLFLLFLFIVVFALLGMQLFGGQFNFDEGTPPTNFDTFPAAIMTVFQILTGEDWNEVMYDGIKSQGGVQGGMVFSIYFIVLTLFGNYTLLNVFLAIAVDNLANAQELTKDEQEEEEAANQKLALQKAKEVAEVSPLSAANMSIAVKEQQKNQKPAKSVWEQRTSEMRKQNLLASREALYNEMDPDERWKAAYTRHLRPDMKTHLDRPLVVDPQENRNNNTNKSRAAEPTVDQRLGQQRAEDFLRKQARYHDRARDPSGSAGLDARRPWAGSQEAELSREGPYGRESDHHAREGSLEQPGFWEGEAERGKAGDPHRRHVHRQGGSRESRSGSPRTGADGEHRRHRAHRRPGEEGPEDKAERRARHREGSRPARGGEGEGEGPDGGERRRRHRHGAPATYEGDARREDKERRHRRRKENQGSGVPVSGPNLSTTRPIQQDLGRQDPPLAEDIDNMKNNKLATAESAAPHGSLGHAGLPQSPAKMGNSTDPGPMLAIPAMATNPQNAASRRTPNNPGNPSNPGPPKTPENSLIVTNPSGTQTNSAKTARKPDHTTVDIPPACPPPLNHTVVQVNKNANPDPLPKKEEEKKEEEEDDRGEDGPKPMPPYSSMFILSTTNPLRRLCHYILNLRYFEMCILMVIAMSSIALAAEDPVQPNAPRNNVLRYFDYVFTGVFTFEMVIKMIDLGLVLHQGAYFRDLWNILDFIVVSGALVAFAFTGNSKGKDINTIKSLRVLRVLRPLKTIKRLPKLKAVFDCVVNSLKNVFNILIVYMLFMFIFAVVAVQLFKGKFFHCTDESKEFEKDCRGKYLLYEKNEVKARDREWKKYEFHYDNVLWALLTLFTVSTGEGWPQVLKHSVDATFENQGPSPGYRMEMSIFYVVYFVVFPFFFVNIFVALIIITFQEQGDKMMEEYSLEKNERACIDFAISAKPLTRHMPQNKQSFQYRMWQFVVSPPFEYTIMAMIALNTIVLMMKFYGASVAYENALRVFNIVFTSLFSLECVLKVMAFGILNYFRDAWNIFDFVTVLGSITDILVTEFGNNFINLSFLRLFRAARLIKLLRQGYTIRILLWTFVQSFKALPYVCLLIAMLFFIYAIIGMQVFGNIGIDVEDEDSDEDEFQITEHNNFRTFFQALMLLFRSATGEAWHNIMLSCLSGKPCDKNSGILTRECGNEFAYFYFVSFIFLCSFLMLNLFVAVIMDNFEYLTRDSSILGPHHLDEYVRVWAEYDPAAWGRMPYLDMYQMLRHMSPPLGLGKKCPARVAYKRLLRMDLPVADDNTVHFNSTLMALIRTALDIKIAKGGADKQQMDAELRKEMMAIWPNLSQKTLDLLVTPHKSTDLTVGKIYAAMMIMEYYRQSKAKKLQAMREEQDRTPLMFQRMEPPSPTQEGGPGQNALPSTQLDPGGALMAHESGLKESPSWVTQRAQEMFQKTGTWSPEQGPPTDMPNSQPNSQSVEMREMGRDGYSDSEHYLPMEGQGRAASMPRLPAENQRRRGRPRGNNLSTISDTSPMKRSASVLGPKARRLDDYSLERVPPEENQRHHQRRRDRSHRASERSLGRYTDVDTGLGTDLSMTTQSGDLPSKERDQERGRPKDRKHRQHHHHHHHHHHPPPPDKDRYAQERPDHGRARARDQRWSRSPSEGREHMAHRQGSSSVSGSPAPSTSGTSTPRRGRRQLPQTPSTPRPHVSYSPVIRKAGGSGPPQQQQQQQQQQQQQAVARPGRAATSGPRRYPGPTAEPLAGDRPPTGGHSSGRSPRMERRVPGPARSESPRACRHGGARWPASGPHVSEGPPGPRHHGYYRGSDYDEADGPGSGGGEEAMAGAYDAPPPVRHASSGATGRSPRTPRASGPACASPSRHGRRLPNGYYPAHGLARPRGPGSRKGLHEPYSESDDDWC
muscarinic acetylcholine receptor M1 (Homo sapiens), sequence (P11229 whole entry): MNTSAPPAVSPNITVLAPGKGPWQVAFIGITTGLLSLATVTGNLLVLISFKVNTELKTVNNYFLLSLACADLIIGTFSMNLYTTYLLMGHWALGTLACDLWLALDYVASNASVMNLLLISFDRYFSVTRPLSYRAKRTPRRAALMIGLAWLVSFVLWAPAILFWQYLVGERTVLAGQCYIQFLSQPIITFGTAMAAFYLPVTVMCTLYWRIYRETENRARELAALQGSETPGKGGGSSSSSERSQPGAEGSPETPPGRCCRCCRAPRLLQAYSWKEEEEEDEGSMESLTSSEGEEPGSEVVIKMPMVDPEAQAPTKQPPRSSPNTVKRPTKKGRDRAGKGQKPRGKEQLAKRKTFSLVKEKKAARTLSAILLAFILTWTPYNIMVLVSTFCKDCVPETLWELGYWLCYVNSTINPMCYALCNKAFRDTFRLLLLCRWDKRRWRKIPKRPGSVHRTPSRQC
muscarinic toxin MT7, sequence (Q8QGR0 22-86): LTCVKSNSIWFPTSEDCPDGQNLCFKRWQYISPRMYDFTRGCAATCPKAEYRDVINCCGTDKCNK
muscarinic acetylcholine receptor M4 (Homo sapiens), sequence (P08173 whole entry): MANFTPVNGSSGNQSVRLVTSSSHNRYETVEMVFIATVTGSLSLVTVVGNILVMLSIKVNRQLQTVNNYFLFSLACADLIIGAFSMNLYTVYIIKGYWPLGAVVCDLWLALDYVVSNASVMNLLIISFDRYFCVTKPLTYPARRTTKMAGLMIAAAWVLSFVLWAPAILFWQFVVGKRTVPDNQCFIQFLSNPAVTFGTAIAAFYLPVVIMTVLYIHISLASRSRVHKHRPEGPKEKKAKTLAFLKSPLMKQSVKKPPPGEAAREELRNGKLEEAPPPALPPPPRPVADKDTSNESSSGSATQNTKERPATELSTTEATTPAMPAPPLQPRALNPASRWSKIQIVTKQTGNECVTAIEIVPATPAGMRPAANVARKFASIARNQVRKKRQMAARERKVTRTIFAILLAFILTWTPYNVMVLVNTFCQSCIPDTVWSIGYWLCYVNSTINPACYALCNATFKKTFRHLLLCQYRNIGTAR

muscarinic toxin MT3 (from UniProt P81031)
Ki [1]: 2 nM

muscarinic toxin MT7 (from UniProt Q8QGR0)
Ki [2]: 0.014 nM

omega-agatoxin Aga-IVA (from UniProt P30288)
Kd (P-type calcium channel): 3 nM

protective antigen PA63 oligomer PA63 (from UniProt P13423)
Kd [3]: 1 nM
Kd [4]: 1 nM
